From publication PMC1891329

Target: full-length MglA (residues 1–205) fused to Zif or to the ω subunit of E. coli RNAP (F. tularensis subspecies holarctica LVS)
Test: two-hybrid

full-length F. tularensis LVS SspA (residues 1–210) fused to the ω subunit of E. coli RNAP or to Zif (natural protein)
fold activation of the lacZ reporter: 22 fold
